According to PMC5737868:

What was measured:
[1] = target: FUS-P525L-NLUC-HA / NLUC-FUS-P525L-HA (full-length) (UniProt P35637 1-526, P525L); assay: NanoBRET
[2] = target: FUS-NLUC-FLAG (UniProt P35637 1-526, P525L); assay: NanoBRET

CTGCTAGCCTCTGGATTTGA (XNA, full phosphorothioate, 2'-fluoro-modified gapmer (pattern not in the material)) [2'-F PS-ASO ION-766637]
Kd [1]: 0.0022 ± 0.0002 µM

CUGCUAGCCUCUGGAUUUGA (ssRNA) [PO-RNA JB-39]
Kd [2]: 0.143 ± 0.0382 µM
